This data set relates to MexR (CSP18) (Pseudomonas aeruginosa clinical isolate CSP18). Description: MST. Conditions: MST: 10 mM Tris, 1 mM DTT, room temperature.

The record followed here is PMC8264304.

Usually Kd stands for the constant that tells how readily two partners part at equilibrium. A higher Kd goes with lower affinity. With mexR-mexA intergenic region, the dissociation constant (Kd) was 1.1 µM.
